The supplement of paper PMC12458215
± gives the uncertainty stated by the source.

Test system: HEK293T
Experiment: plasma membrane surface immunostaining intensity (anti-HA, deep receptor scanning) (arbitrary fluorescence units); higher = higher plasma membrane expression

Sequence | plasma membrane surface immunostaining intensity (GPCR class: A) | plasma membrane surface immunostaining intensity (GPCR class: A (Olfactory)) | further results
MEPSATPGAQMGVPPGSREPSPVPPDYEDEFLRYLWRDYLYPKQYEWVLIAAYVAVFVVALVGNTLVCLAVWRNHHMRTVTNYFIVNLSLADVLVTAICLPASLLVDITESWLFGHALCKVIPYLQAVSVSVAVLTLSFIALDRWYAICHPLLFKSTARRARGSILGIWAVSLAIMVPQAAVMECSSVLPELANRTRLFSVCDERWADDLYPKIYHSCFFIVTYLAPLGLMAMAYFQIFRKLWGRQIPGTTSALVRNWKRPSDQLGDLEQGLSGEPQPRARAFLAEVKQMRARRKTAKMLMVVLLVFALCYLPISVLNVLKRVFGMFRQASDREAVYACFTFSHWLVYANSAANPIIYNFLSGKFREQFKAAFSCCLPGLGPCGSLKAPSPRSSASHKSLSLQSRCSISKISEHVVLTSVTTVLP [HCRTR1] | 1070 ± 130 |  | 
MERGNQTEVGNFLLLGFAEDSDMQLLLHGLFLSMYLVTIIGNLLIILTISSDSHLHTPMYFFLSNLSFADICFTSTTVPKMLVNIQTQSKMITFAGCLTQIFFFIAFGCLDNLLLTMTAYDRFVAICYPLHYTVIMNPRLCGLLVLGSWCISVMGSLLETLTILRLSFCTNMEIPHFFCDPSEVLKLACSDTFINNIVMYFVTIVLGVFPLCGILFSYSQIFSSVLRVSARGQHKAFSTCGSHLSVVSLFYGTGLGVYLSSAVTPPSRTSLAASVMYTMVTPMLNPFIYSLRNKDMKGSLGRLLLRATSLKEGTIAKLS [OR7C2] |  | 131 ± 26 | 
MERINHTSSVSEFILLGLSSRPEDQKTLFVLFLIVYLVTITGNLLIILAIRFNPHLQTPMYFFLSFLSLTDICFTTSVVPKMLMNFLSEKKTISYAGCLTQMYFLYALGNSDSCLLAVMAFDRYVAVCDPFHYVTTMSHHHCVLLVAFSCSFPHLHSLLHTLLLNRLTFCDSNVIHHFLCDLSPVLKLSCSSIFVNEIVQMTEAPIVLVTRFLCIAFSYIRILTTVLKIPSTSGKRKAFSTCGFYLTVVTLFYGSIFCVYLQPPSTYAVKDHVATIVYTVLSSMLNPFIYSLRNKDLKQGLRKLMSKRS [OR1L8] |  | 177 ± 72 | 
MERTNDSTSTEFFLVGLSAHPKLQTVFFVLILWMYLMILLGNGVLISVIIFDSHLHTPMYFFLCNLSFLDVCYTSSSVPLILASFLAVKKKVSFSGCMVQMFISFAMGATECMILGTMALDRYVAICYPLRYPVIMSKGAYVAMAAGSWVTGLVDSVVQTAFAMQLPFCANNVIKHFVCEILAILKLACADISINVISMTGSNLIVLVIPLLVISISYIFIVATILRIPSTEGKHKAFSTCSAHLTVVIIFYGTIFFMYAKPESKASVDSGNEDIIEALISLFYGVMTPMLNPLIYSLRNKDVKAAVKNILCRKNFSDGK [OR13C8] |  | 129 ± 16 | 
MESENRTVIREFILLGLTQSQDIQLLVFVLVLIFYFIILPGNFLIIFTIKSDPGLTAPLYFFLGNLAFLDASYSFIVAPRMLVDFLSAKKIISYRGCITQLFFLHFLGGGEGLLLVVMAFDRYIAICRPLHYPTVMNPRTCYAMMLALWLGGFVHSIIQVVLILRLPFCGPNQLDNFFCDVPQVIKLACTDTFVVELLMVFNSGLMTLLCFLGLLASYAVILCRIRGSSSEAKNKAMSTCITHIIVIFFMFGPGIFIYTRPFRAFPADKVVSLFHTVIFPLLNPVIYTLRNQEVKASMKKVFNKHIA [OR4N2] |  | 134 ± 28 | 
MESNQTWITEVILLGFQVDPALELFLFGFFLLFYSLTLMGNGIILGLIYLDSRLHTPMYVFLSHLAIVDMSYASSTVPKMLANLVMHKKVISFAPCILQTFLYLAFAITECLILVMMCYDRYVAICHPLQYTLIMNWRVCTVLASTCWIFSFLLALVHITLILRLPFCGPQKINHFFCQIMSVFKLACADTRLNQVVLFAGSAFILVGPLCLVLVSYLHILVAILRIQSGEGRRKAFSTCSSHLCVVGLFFGSAIVMYMAPKSSHSQERRKILSLFYSLFNPILNPLIYSLRNAEVKGALKRVLWKQRSM [OR2A12] |  | 126 ± 28 | 
MESSFSFGVILAVLASLIIATNTLVAVAVLLLIHKNDGVSLCFTLNLAVADTLIGVAISGLLTDQLSSPSRPTQKTLCSLRMAFVTSSAAASVLTVMLITFDRYLAIKQPFRYLKIMSGFVAGACIAGLWLVSYLIGFLPLGIPMFQQTAYKGQCSFFAVFHPHFVLTLSCVGFFPAMLLFVFFYCDMLKIASMHSQQIRKMEHAGAMAGGYRSPRTPSDFKALRTVSVLIGSFALSWTPFLITGIVQVACQECHLYLVLERYLWLLGVGNSLLNPLIYAYWQKEVRLQLYHMALGVKKVLTSFLLFLSARNCGPERPRESSCHIVTISSSEFDG [GPR119] | 702 ± 99 |  | 
MESSGNPESTTFFYYDLQSQPCENQAWVFATLATTVLYCLVFLLSLVGNSLVLWVLVKYESLESLTNIFILNLCLSDLVFACLLPVWISPYHWGWVLGDFLCKLLNMIFSISLYSSIFFLTIMTIHRYLSVVSPLSTLRVPTLRCRVLVTMAVWVASILSSILDTIFHKVLSSGCDYSELTWYLTSVYQHNLFFLLSLGIILFCYVEILRTLFRSRSKRRHRTVKLIFAIVVAYFLSWGPYNFTLFLQTLFRTQIIRSCEAKQQLEYALLICRNLAFSHCCFNPVLYVFVGVKFRTHLKHVLRQFWFCRLQAPSPASIPHSPGAFAYEGASFY [XCR1] | 190 ± 16 |  | 
METNFSIPLNETEEVLPEPAGHTVLWIFSLLVHGVTFVFGVLGNGLVIWVAGFRMTRTVNTICYLNLALADFSFSAILPFRMVSVAMREKWPFGSFLCKLVHVMIDINLFVSVYLITIIALDRCICVLHPAWAQNHRTMSLAKRVMTGLWIFTIVLTLPNFIFWTTISTTNGDTYCIFNFAFWGDTAVERLNVFITMAKVFLILHFIIGFSVPMSIITVCYGIIAAKIHRNHMIKSSRPLRVFAAVVASFFICWFPYELIGILMAVWLKEMLLNGKYKIILVLINPTSSLAFFNSCLNPILYVFMGRNFQERLIRSLPTSLERALTEVPDSAQTSNTDTTSASPPEETELQAM [FPR3] | 6430 ± 58 |  | 
METNFSTPLNEYEEVSYESAGYTVLRILPLVVLGVTFVLGVLGNGLVIWVAGFRMTRTVTTICYLNLALADFSFTATLPFLIVSMAMGEKWPFGWFLCKLIHIVVDINLFGSVFLIGFIALDRCICVLHPVWAQNHRTVSLAMKVIVGPWILALVLTLPVFLFLTTVTIPNGDTYCTFNFASWGGTPEERLKVAITMLTARGIIRFVIGFSLPMSIVAICYGLIAAKIHKKGMIKSSRPLRVLTAVVASFFICWFPFQLVALLGTVWLKEMLFYGKYKIIDILVNPTSSLAFFNSCLNPMLYVFVGQDFRERLIHSLPTSLERALSEDSAPTNDTAANSASPPAETELQAM [FPR2] | 6515 ± 60 |  | 
METNSSLPTNISGGTPAVSAGYLFLDIITYLVFAVTFVLGVLGNGLVIWVAGFRMTHTVTTISYLNLAVADFCFTSTLPFFMVRKAMGGHWPFGWFLCKFVFTIVDINLFGSVFLIALIALDRCVCVLHPVWTQNHRTVSLAKKVIIGPWVMALLLTLPVIIRVTTVPGKTGTVACTFNFSPWTNDPKERINVAVAMLTVRGIIRFIIGFSAPMSIVAVSYGLIATKIHKQGLIKSSRPLRVLSFVAAAFFLCWSPYQVVALIATVRIRELLQGMYKEIGIAVDVTSALAFFNSCLNPMLYVFMGQDFRERLIHALPASLERALTEDSTQTSDTATNSTLPSAEVELQAK [FPR1] | 6448 ± 46 |  | 
METPNTTEDYDTTTEFDYGDATPCQKVNERAFGAQLLPPLYSLVFVIGLVGNILVVLVLVQYKRLKNMTSIYLLNLAISDLLFLFTLPFWIDYKLKDDWVFGDAMCKILSGFYYTGLYSEIFFIILLTIDRYLAIVHAVFALRARTVTFGVITSIIIWALAILASMPGLYFSKTQWEFTHHTCSLHFPHESLREWKLFQALKLNLFGLVLPLLVMIICYTGIIKILLRRPNEKKSKAVRLIFVIMIIFFLFWTPYNLTILISVFQDFLFTHECEQSRHLDLAVQVTEVIAYTHCCVNPVIYAFVGERFRKYLRQLFHRRVAVHLVKWLPFLSVDRLERVSSTSPSTGEHELSAGF [CCR1] | 5560 ± 180 |  | 
METQNLTVVTEFILLGLTQSQDAQLLVFVLVLIFYLIILPGNFLIIFTIKSDPGLTAPLYFFLGNLALLDASYSFIVVPRMLVDFLSEKKVISYRSCITQLFFLHFLGAGEMFLLVVMAFDRYIAICRPLHYSTIMNPRACYALSLVLWLGGFIHSIVQVALILHLPFCGPNQLDNFFCDVPQVIKLACTNTFVVELLMVSNSGLLSLLCFLGLLASYAVILCRIREHSSEGKSKAISTCTTHIIIIFLMFGPAIFIYTCPFQAFPADKVVSLFHTVIFPLMNPVIYTLRNQEVKASMRKLLSQHMFC [OR4N5] |  | 216 ± 66 | 
METTMGFMDDNATNTSTSFLSVLNPHGAHATSFPFNFSYSDYDMPLDEDEDVTNSRTFFAAKIVIGMALVGIMLVCGIGNFIFIAALVRYKKLRNLTNLLIANLAISDFLVAIVCCPFEMDYYVVRQLSWEHGHVLCTSVNYLRTVSLYVSTNALLAIAIDRYLAIVHPLRPRMKCQTATGLIALVWTVSILIAIPSAYFTTETVLVIVKSQEKIFCGQIWPVDQQLYYKSYFLFIFGIEFVGPVVTMTLCYARISRELWFKAVPGFQTEQIRKRLRCRRKTVLVLMCILTAYVLCWAPFYGFTIVRDFFPTVFVKEKHYLTAFYIVECIAMSNSMINTLCFVTVKNDTVKYFKKIMLLHWKASYNGGKSSADLDLKTIGMPATEEVDCIRLK [PROKR1] | 2260 ± 380 |  | 
MEWGYLLEVTSLLAALALLQRSSGAAAASAKELACQEITVPLCKGIGYNYTYMPNQFNHDTQDEAGLEVHQFWPLVEIQCSPDLKFFLCSMYTPICLEDYKKPLPPCRSVCERAKAGCAPLMRQYGFAWPDRMRCDRLPEQGNPDTLCMDYNRTDLTTAAPSPPRRLPPPPPGEQPPSGSGHGRPPGARPPHRGGGRGGGGGDAAAPPARGGGGGGKARPPGGGAAPCEPGCQCRAPMVSVSSERHPLYNRVKTGQIANCALPCHNPFFSQDERAFTVFWIGLWSVLCFVSTFATVSTFLIDMERFKYPERPIIFLSACYLFVSVGYLVRLVAGHEKVACSGGAPGAGGAGGAGGAAAGAGAAGAGAGGPGGRGEYEELGAVEQHVRYETTGPALCTVVFLLVYFFGMASSIWWVILSLTWFLAAGMKWGNEAIAGYSQYFHLAAWLVPSVKSIAVLALSSVDGDPVAGICYVGNQSLDNLRGFVLAPLVIYLFIGTMFLLAGFVSLFRIRSVIKQQDGPTKTHKLEKLMIRLGLFTVLYTVPAAVVVACLFYEQHNRPRWEATHNCPCLRDLQPDQARRPDYAVFMLKYFMCLVVGITSGVWVWSGKTLESWRSLCTRCCWASKGAAVGGGAGATAAGGGGGPGGGGGGGPGGGGGPGGGGGSLYSDVSTGLTWRSGTASSVSYPKQMPLSQV [FZD8] |  |  | plasma membrane surface immunostaining intensity (GPCR class: F): 225 ± 23
MFGLFGLWRTFDSVVFYLTLIVGLGGPVGNGLVLWNLGFRIKKGPFSIYLLHLAAADFLFLSCRVGFSVAQAALGAQDTLYFVLTFLWFAVGLWLLAAFSVERCLSDLFPACYQGCRPRHASAVLCALVWTPTLPAVPLPANACGLLRNSACPLVCPRYHVASVTWFLVLARVAWTAGVVLFVWVTCCSTRPRPRLYGIVLGALLLLFFCGLPSVFYWSLQPLLNFLLPVFSPLATLLACVNSSSKPLIYSGLGRQPGKREPLRSVLRRALGEGAELGARGQSLPMGLL [MRGPRG] | 115 ± 15 |  | 
